# T1: Bcl-w
# T1 chain: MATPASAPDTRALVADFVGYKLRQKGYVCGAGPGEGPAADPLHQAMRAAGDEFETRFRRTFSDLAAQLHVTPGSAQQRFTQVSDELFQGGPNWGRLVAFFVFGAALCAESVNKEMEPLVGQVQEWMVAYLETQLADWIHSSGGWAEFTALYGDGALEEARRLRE
# B1: Bad BH3 Q6A, phage-displayed (peptide)
# peptide: NLWAAARYGRELRRMSDEFVDSFKKG
# notes: M13 phage display: FLAG-26mer-GGGT-g3(249-406)
# B2: Bad BH3 N1A, phage-displayed (peptide)
# peptide: ALWAAQRYGRELRRMSDEFVDSFKKG
# notes: as for B1
# B3: Bad BH3 G26E, phage-displayed (peptide)
# peptide: NLWAAQRYGRELRRMSDEFVDSFKKE
# notes: as for B1
# B4: Bad BH3 A4E, phage-displayed (peptide)
# peptide: NLWEAQRYGRELRRMSDEFVDSFKKG
# notes: as for B1
# B5: Bad BH3 D21A, phage-displayed (peptide)
# peptide: NLWAAQRYGRELRRMSDEFVASFKKG
# notes: as for B1
# B6: Bad BH3 R14A, phage-displayed (peptide)
# peptide: NLWAAQRYGRELRAMSDEFVDSFKKG
# notes: as for B1
# B7: Bad BH3 K24A, phage-displayed (peptide)
# peptide: NLWAAQRYGRELRRMSDEFVDSFAKG
# notes: as for B1
# B8: Bad BH3 V20A, phage-displayed (peptide)
# peptide: NLWAAQRYGRELRRMSDEFADSFKKG
# notes: as for B1
# B9: Bad BH3 E18A, phage-displayed (peptide)
# peptide: NLWAAQRYGRELRRMSDAFVDSFKKG
# notes: as for B1
# B10: Bad BH3 R10A, phage-displayed (peptide)
# peptide: NLWAAQRYGAELRRMSDEFVDSFKKG
# notes: as for B1
# B11: Bad BH3 R7A, phage-displayed (peptide)
# peptide: NLWAAQAYGRELRRMSDEFVDSFKKG
# notes: as for B1
# B12: Bad BH3 S22A, phage-displayed (peptide)
# peptide: NLWAAQRYGRELRRMSDEFVDAFKKG
# notes: as for B1
# B13: Bad BH3 L2A, phage-displayed (peptide)
# peptide: NAWAAQRYGRELRRMSDEFVDSFKKG
# notes: as for B1
# B14: Bad BH3 Y8A, phage-displayed (peptide)
# peptide: NLWAAQRAGRELRRMSDEFVDSFKKG
# notes: as for B1
# B15: Bad BH3 K25A, phage-displayed (peptide)
# peptide: NLWAAQRYGRELRRMSDEFVDSFKAG
# notes: as for B1
# B16: Bad BH3 W3A, phage-displayed (peptide)
# peptide: NLAAAQRYGRELRRMSDEFVDSFKKG
# notes: as for B1
# B17: Bad BH3 M15A, phage-displayed (peptide)
# peptide: NLWAAQRYGRELRRASDEFVDSFKKG
# notes: as for B1
# B18: Bad BH3 A5E, phage-displayed (peptide)
# peptide: NLWAEQRYGRELRRMSDEFVDSFKKG
# notes: as for B1
# B19: Bad BH3 wild type, phage-displayed (peptide)
# peptide: NLWAAQRYGRELRRMSDEFVDSFKKG
# notes: M13 phage display: FLAG-26mer-GGGT-g3(249-406); also called wtBad
# B20: Bad BH3 R13A, phage-displayed (peptide)
# peptide: NLWAAQRYGRELARMSDEFVDSFKKG
# notes: as for B1
# B21: Bad BH3 F23A, phage-displayed (peptide)
# peptide: NLWAAQRYGRELRRMSDEFVDSAKKG
# notes: as for B1
# B22: Bad BH3 D17A, phage-displayed (peptide)
# peptide: NLWAAQRYGRELRRMSAEFVDSFKKG
# notes: as for B1
# B23: Bid BH3 S18A, phage-displayed (peptide)
# peptide: QEDIIRNIARHLAQVGDAMDRSIPPG
# notes: as for B1
# B24: Bid BH3 A13E, phage-displayed (peptide)
# peptide: QEDIIRNIARHLEQVGDSMDRSIPPG
# notes: as for B1
# B25: Bid BH3 I5A, phage-displayed (peptide)
# peptide: QEDIARNIARHLAQVGDSMDRSIPPG
# notes: as for B1
# B26: Bid BH3 R6A, phage-displayed (peptide)
# peptide: QEDIIANIARHLAQVGDSMDRSIPPG
# notes: as for B1
# B27: Bid BH3 N7A, phage-displayed (peptide)
# peptide: QEDIIRAIARHLAQVGDSMDRSIPPG
# notes: as for B1
# B28: Bid BH3 Q1A, phage-displayed (peptide)
# peptide: AEDIIRNIARHLAQVGDSMDRSIPPG
# notes: as for B1
# B29: Bid BH3 D20A, phage-displayed (peptide)
# peptide: QEDIIRNIARHLAQVGDSMARSIPPG
# notes: as for B1
# B30: Bid BH3 R10A, phage-displayed (peptide)
# peptide: QEDIIRNIAAHLAQVGDSMDRSIPPG
# notes: as for B1
# B31: Bid BH3 P25A, phage-displayed (peptide)
# peptide: QEDIIRNIARHLAQVGDSMDRSIPAG
# notes: as for B1
# B32: Bid BH3 D3A, phage-displayed (peptide)
# peptide: QEAIIRNIARHLAQVGDSMDRSIPPG
# notes: as for B1
# B33: Bid BH3 Q14A, phage-displayed (peptide)
# peptide: QEDIIRNIARHLAAVGDSMDRSIPPG
# notes: as for B1
# B34: Bid BH3 I23A, phage-displayed (peptide)
# peptide: QEDIIRNIARHLAQVGDSMDRSAPPG
# notes: as for B1
# B35: Bid BH3 R21A, phage-displayed (peptide)
# peptide: QEDIIRNIARHLAQVGDSMDASIPPG
# notes: as for B1
# B36: Bid BH3 wild type, phage-displayed (peptide)
# peptide: QEDIIRNIARHLAQVGDSMDRSIPPG
# notes: M13 phage display: FLAG-26mer-GGGT-g3(249-406); also called wtBid
# B37: Bid BH3 V15A, phage-displayed (peptide)
# peptide: QEDIIRNIARHLAQAGDSMDRSIPPG
# notes: as for B1
# B38: Bid BH3 H11A, phage-displayed (peptide)
# peptide: QEDIIRNIARALAQVGDSMDRSIPPG
# notes: as for B1
# B39: Bid BH3 I4A, phage-displayed (peptide)
# peptide: QEDAIRNIARHLAQVGDSMDRSIPPG
# notes: as for B1
# B40: Bid BH3 P24A, phage-displayed (peptide)
# peptide: QEDIIRNIARHLAQVGDSMDRSIAPG
# notes: as for B1
# B41: Bid BH3 G26E, phage-displayed (peptide)
# peptide: QEDIIRNIARHLAQVGDSMDRSIPPE
# notes: as for B1
# B42: Bid BH3 I8A, phage-displayed (peptide)
# peptide: QEDIIRNAARHLAQVGDSMDRSIPPG
# notes: as for B1
# B43: Bid BH3 E2A, phage-displayed (peptide)
# peptide: QADIIRNIARHLAQVGDSMDRSIPPG
# notes: as for B1
# B44: Bid BH3 L12A, phage-displayed (peptide)
# peptide: QEDIIRNIARHAAQVGDSMDRSIPPG
# notes: as for B1
# B45: Bid BH3 S22A, phage-displayed (peptide)
# peptide: QEDIIRNIARHLAQVGDSMDRAIPPG
# notes: as for B1
# Target: Bcl-2
# Sequence (chain, as listed by the source): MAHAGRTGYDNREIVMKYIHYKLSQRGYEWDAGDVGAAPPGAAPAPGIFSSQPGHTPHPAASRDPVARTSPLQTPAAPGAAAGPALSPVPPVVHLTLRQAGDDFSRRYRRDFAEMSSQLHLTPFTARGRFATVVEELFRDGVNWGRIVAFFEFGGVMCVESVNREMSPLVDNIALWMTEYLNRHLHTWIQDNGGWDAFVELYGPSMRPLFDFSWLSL
# Test: competition phage ELISA
Binder,Fold/wt,IC50
B1,1 fold,0.018 µM
B2,1 fold,0.01 µM
B3,1 fold,0.015 µM
B4,1 fold,0.01 µM
B5,1 fold,0.017 µM
B6,5 fold,0.057 µM
B7,1 fold,0.014 µM
B8,1 fold,0.013 µM
B9,2 fold,0.029 µM
B10,1 fold,0.014 µM
B11,1 fold,0.014 µM
B12,1 fold,0.019 µM
B13,1 fold,0.007 µM
B14,1 fold,0.019 µM
B15,1 fold,0.013 µM
B16,1 fold,0.012 µM
B17,3 fold,0.043 µM
B18,2 fold,0.026 µM
B19,1 fold,0.013 µM
B20,1 fold,0.019 µM

# Target: T1, Bcl-w
# Test: competition phage ELISA
Binder,Fold/wt,IC50
B1,1 fold,0.047 µM
B2,1 fold,0.047 µM
B3,1 fold,0.037 µM
B4,1 fold,0.046 µM
B5,1 fold,0.028 µM
B6,2 fold,0.086 µM
B7,1 fold,0.054 µM
B21,2 fold,0.083 µM
B8,1 fold,0.038 µM
B9,1 fold,0.055 µM
B22,3 fold,0.128 µM
B10,1 fold,0.041 µM
B11,1 fold,0.032 µM
B12,2 fold,0.077 µM
B13,1 fold,0.035 µM
B14,2 fold,0.077 µM
B15,1 fold,0.046 µM
B16,1 fold,0.033 µM
B17,1 fold,0.043 µM
B18,4 fold,0.152 µM
B19,1 fold,0.037 µM
B20,1 fold,0.052 µM

# Target: T1, Bcl-w
# Test: competition phage ELISA
# Remark: another data set of the same source
Binder,Fold/wt,IC50
B23,1 fold,0.031 µM
B24,11 fold,0.253 µM
B25,2 fold,0.034 µM
B26,2 fold,0.042 µM
B27,1 fold,0.025 µM
B28,1 fold,0.029 µM
B29,1 fold,0.024 µM
B30,2 fold,0.046 µM
B31,1 fold,0.026 µM
B32,1 fold,0.034 µM
B33,1 fold,0.025 µM
B34,1 fold,0.018 µM
B35,2 fold,0.052 µM
B36,1 fold,0.023 µM
B37,3 fold,0.059 µM
B38,1 fold,0.017 µM
B39,1 fold,0.023 µM
B40,1 fold,0.025 µM
B41,1 fold,0.025 µM
B42,8 fold,0.182 µM
B43,2 fold,0.034 µM
B44,25 fold,0.553 µM
B45,1 fold,0.027 µM
